# Data: the nanobody polyreactivity screen of Harvey et al. (2022)
# Experiment: yeast display, Sf9 membrane polyspecificity reagent, FACS + sequencing; frameworks hold sequencing errors
# Outline: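 In a synthetic yeast display library (Saccharomyces cerevisiae BJ5465), nanobody expression was induced with galactose for 36–48 hours. FACS gates were set low and high (top ~1%) using anti-HA fluorescence for expression and streptavidin fluorescence for binding of the Sf9 membrane reagent. Each polyreactivity label is drawn from the gate of origin.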
row,Sequence,polyreactivity (PSR sort gate)
1,QVQLVESGGGLVQAGGSLRLSCAASGRIYSYYAMGWYRQAPGKERELVAGIRSGGSTNYADSVKGRFTISRDNAKNTVYLQMNSLKPEDTAVYYCAARWTRWTSKRFEYWGQGTQVTVSS,high polyreactivity
2,QVQLVESGGGLVQAGGSLRLSCAASGRIYTHYAMGWYRQAPGKERELVAAISYRGGSTYYADSVKGRFTISRDNAKNTVYLQMNRLKPEATAVYYCNKYRFVYSLDDYWGQGIQVTVSS,high polyreactivity
3,QVQLVESGGGLVQAGGSLRLSCAASGRIYVIYGMGWYRQAPGKERELVATISWSGSSTSYADSVKGRFTISRDNAKNTVYLQMNSLKHEDTAVYYCNAPVQSETFDYWGQGTQVTVSS,high polyreactivity
4,QVQLVESGGGLVQAGGSLRLSCAASGRIYVNAMGWYRQAPGKERELVAAIRSGGSTNYADSVKGRFTISRDNAKNTVYLQMNSLKPEDTAVYYCNARRRDYRHWYDYWGQGTQVTVSS,high polyreactivity
5,QVQLVESGGGLVQAGGSLRLSCAASGRIYWNDMGWYRQAPGKERELVAAISWGGDRTYYADSVKGRFTISRDNAKNSFYLQMNSLKPEDTAVYYFNAPGYLTYDHSYDYWGQGTQVTVSS,low polyreactivity
6,QVQLVESGGGLVQAGGSLRLSCAASGRIYWNTMGWYIQAPGKERELVASISTGGGRTYYADSVKGRFTISRDNAKNTVYLQMNSLKPEDTAVYYCAVRSYGHGFDYWGQGTQVTVSS,high polyreactivity
7,QVQLVESGGGLVQAGGSLRLSCAASGRIYWNTMGWYRQAPWKEREMVASISTGCGRTYYADSVKGRFTISRDNAKNTVYLQMHSLKPEDTSVYYCNAVRTVWYRYEYGYWGQGTQVTVSS,high polyreactivity
8,QVQLVESGGGLVQAGGSLRLSCAASGRIYWSYDMGWNRQAPVKERELVASITSDGSTNYADSVKGRFTISRDNAKNTVYLQMNSLKPEDTAVYYCAARPYKYDPFAQGDGGKYDYWGQGTQVTVSS,low polyreactivity
9,QVQLVESGGGLVQAGGSLRLSCAASGRIYYQYAMGWYRQAPGKERELVAAITRGGNTYYADSVKGRFTISRDNAKNTVYLQMNSLKPEDTAVYYCNARWHTTGYRYDYWGQGTQVTVSS,high polyreactivity
10,QVQLVESGGGLVQAGGSLRLSCAASGRLFYSYAMGWYRQAPGKERELVAAIGRGGGTTYADSVKGRFTISRDNAKNTVYLQMNSLKPEDTAVYYCAADWHSTPRHTMDYWGQGTQVTVSS,low polyreactivity
11,QVQLVESGGGLVQAGGSLRLSCAASGRNFAGYAMLWYRQAPGKERELVATISSGGSTYYADSVKGRFTISRDNAKNTVYLQKNSLKPEDTAVYYCAAEYGTRQYSSYYKLFNYWGQGTQVTVSS,low polyreactivity
12,QVQLVESGGGLVQAGGSLRLSCAASGRNFCVYAMGWYRHDHGKERELVAAISYDDGDTFYADSVKGRFTISRDNAKNTVYLQMNSLKPDDTAVYYCDAEGYSYIQSDLDYCGQGTQVTVSS,high polyreactivity
13,QVQLVESGGGLVQAGGSLRLSCAASGRNFGRNGMGWYRQAPGKERELVAAISIGDSTTYADSVKGRFTISRDNAKNTVYLQMNSLKPEDTAVFYCAAELERYPVWEYRGKYDYWGQGTQVTVSS,low polyreactivity
14,QVQLVESGGGLVQAGGSLRLSCAASGRNFLPNAMGWSRPAPGKERELVAAITSGGGSTYYADSVKGRFTISRDKAKNTVYLQMNSLKPEDTAVYYCAKQPYRGKYYYWGQGTQVTVSS,high polyreactivity
15,QVQLVESGGGLVQAGGSLRLSCAASGRNFPGYARGWYRQAPGKEGELVAGINWSSGSTYYADSVKGRFTISRDNAKNTVYLQMNSLKPEDTAVYYCNALGYWRSTVHYVVGEVDYWGQGTQVTVSS,low polyreactivity
16,QVQLVESGGGLVQAGGSLRLSCAASGRNFPYYAMGWYRQAPGKERELVAAISSSGGRTYYADSVKGRFTISRDNAKNTVYLQMNSLIPEDTAVYYCNVDAWYPYQGFLVGYYYWGQGTQVTVSS,low polyreactivity
17,QVQLVESGGGLVQAGGSLRLSCAASGRNFRRYALGLYRQAPGKERELVAAISSGGSTYYADSVKGRFTISRDNAKNTVYLQMNSLKPEDTAVYYCNAKVGAYLNYGYWGQGTQVTVSS,low polyreactivity
18,QVQLVESGGGLVQAGGSLRLSCAASGRNFSFYAMGWYRQAPGQERELVAAITYTDGSTYADSVKGRFTISRDNAKNTVYLQMNSLKPDDTAVYYFATRYRWTPYDYWGQGTQVTVSS,low polyreactivity
19,QVQLVESGGGLVQAGGSLRLSCAASGRNFSNYAMGWYRQAPGKERELVAAIRATGTTTYYADSVKGRFTISRDNAKNTVYLQMNSLKPDDTAVYYCAARGSRYRSSGYDYWGQGTQVTVSS,high polyreactivity
20,QVQLVESGGGLVQAGGSLRLSCAASGRNFWLNAMGWYRPEPGKERELVATISRGGSTNYADSVKGRFTISRDNAKNTVYLQMNSLKPEDTAVYYCAARPYSYYWNSELDYWGQGTQVTVSS,high polyreactivity
21,QVQLVESGGGLVQAGGSLRLSCAASGRNFYGYAMGWYRQAPGKERELVAAISWSGGSTYYADSVKGRFTISRDNAKNTVYLQMNSLKPEDTAVYYCARRYRGGYKYDYWGQGTQVTVSS,high polyreactivity
22,QVQLVESGGGLVQAGGSLRLSCAASGRNFYSYVMGWYRQAPGKERELVASIRVSGGSTYYADSVKGRFTISRDNAKNTVYLQMNSLKPEDTAVYYCAAGYRSGVSLWRFYAYYWGQGTQVTVSS,high polyreactivity

row,Sequence,polyreactivity (PSR sort gate)
1,QVQLVESGGGLVQAGGSLRLSCAASGRNFYYYAMGWYRQAPGKERELVAAISASGGSTYYADSVKGRFTISRDNAKNTVYLQMNSLKPEDTAVYYCAARATTSQYNYYYWGQGTQVTVSS,high polyreactivity
2,QVQLVESGGGLVQAGGSLRLSCAASGRPFNRNAMGWYRTAPGKERELVASITSRGGSTYYADSVKGRFTISRDNAKNTVYLQMNSLKTEDTAVYYCAGYTRNGDYDYWGQGTQVTFSS,high polyreactivity
3,QVQLVESGGGLVQAGGSLRLSCAASGRPSSLMNMGWYRQAPGKERELVAAISTSGGSTYYADSVKGRFTISRDNAKNTVYLQMNSLKPEDTAVYYCAATIGRRSYNQMYYWGQGTQVTVSS,high polyreactivity
4,QVQLVESGGGLVQAGGSLRLSCAASGRSFESYAMGWYRQAPGKERELVAAITWSGGDTYYADSVKGRFTISRDNAKNTVYLQMNSLKPEDTAVYYCAKEQGLYSVSPYDYWGQGTQVTVSS,low polyreactivity
5,QVQLVESGGGLVQAGGSLRLSCAASGRSFIENVKGWYRQAPGKERELVAAIRSAGTTYNADSVKGRFTISRDNAKNTVYLQMNSLKPEDTAVDYCAATNRYYWSYFYQSKYGYWGQGTQVTVSS,low polyreactivity
6,QVQLVESGGGLVQAGGSLRLSCAASGRSFPAYAMGWYRQAPGKERELVAAISQSGGSTYYADSVKGRFTISRDNAKNTVYLQMNSLKPEDTAVYYCAAGWYVSYYWYDYWGQGTQVTVSS,high polyreactivity
7,QVQLVESGGGLVQAGGSLRLSCAASGRSFPTYAMGWYRQAPGKERELVATISWSGGRTYYADSVKGRFTISRDNAKNTVYLLMNSLKPEDTAVYYCNAYISYRWYRWEYEYWGQGTQVTVSS,low polyreactivity
8,QVQLVESGGGLVQAGGSLRLSCAASGRSFPWYGMGWYRQAPGKERELVAAISRTGGNTYYADSVKGRFTISRDNAKNTVYLQMNSLKPEDTAVYYCIAGYYSNRSYFYDYGYWGQGTQVTVSS,high polyreactivity
9,QVQLVESGGGLVQAGGSLRLSCAASGRSFQGYAMGWYRKAPGKERELVAAISWSGGSTYYADSVKGRFTISRDNAKNTVYLQMNSLKPEDTAVYYCAASYDIYGNYRRYDYWGQGTQVTVSS,high polyreactivity
10,QVQLVESGGGLVQAGGSLRLSCAASGRSFRRYAMGWYRQAPVKDRELVATNTSNGGSTYYADSVKGRFTISRDNAMHTVDFQLNSLKPEDTAVYYCARDLTYYRSRYDYWGQGTQVTVSS,high polyreactivity
11,QVQLVESGGGLVQAGGSLRLSCAASGRSFSKYAMGWYRQAPGKERDLVAGISRSGGSTYYADSVKGRFTISRDNAKNSVYLQMNSLKPEDTAVYYGAAVRRDYDDVYTEYWGQGTQVNVSS,high polyreactivity
12,QVQLVESGGGLVQAGGSLRLSCAASGRSFSLYAMGWYRQAPGKERELVASITGSSTYYADSVKGRFTISRDNAKNTVYLQMNSLKPEDTAVYYCNARTSAGAGVDYWGQGTQVTVSS,low polyreactivity
13,QVQLVESGGGLVQAGGSLRLSCAASGRSFSYNAMGWYRQAPGKERELVASISGNGGRTYYADSVKGRFTISRDNAKNTVYLQMNSLKPEDTAVYYCAARYYSWGGVQYDYWGQGTQVTVSS,high polyreactivity
14,QVQLVESGGGLVQAGGSLRLSCAASGRSFTYYAMGWYRQAPGKERELVATISGSGGSTYYADSVKGRFTISRDNAKNTVYLQMNSLKPEDTAVYYCAATGFIFRGRVRAIPRRYNYWGQGTQVTVSS,high polyreactivity
15,QVQLVESGGGLVQAGGSLRLSCAASGRSFWAYAMGWYRQETGTERELVADITTSGGSTNYADSVKGRFTISRDNAKNTVYLQMNSLKPEDTAVYYCNADPTYHVVNCVGYWGHGTQVTVSS,low polyreactivity
16,QVQLVESGGGLVQAGGSLRLSCAASGRSFYNYAMGWYRQAPGKERELVAAISGSGGSTYYADSVKGRFTISRDNAKNSVYLQMNSLKPEDTAVYYCSTSGPQYYSRNFDSWGQGTQVTVSS,low polyreactivity
17,QVQLVESGGGLVQAGGSLRLSCAASGRSILLNAMGWYRHAPGKERELVAAISRGGSTYYADSVKGRFTISRDNAKYSVYLQMNSLKPEDTAVYYCAARFWISHTHWDAGDYWGQGTQVTVSS,low polyreactivity
18,QVQLVESGGGLVQAGGSLRLSCAASGRSLYNTMGWYRQAPGKERELVAGINWGGGRTYADSVKGRFTISRDNAKNTVYLQMNSMKPEDTAVYYCAADVNYQSRSHIVDYEYGYWGQGTQVTVSS,low polyreactivity
19,QVQLVESGGGLVQAGGSLRLSCAASGRTCDIYAMGWYRQAPGKERELVAAISSGGSTYYADSVKGRFTISRDNAKNTVYLQMNSLKPEDTAVYYCAVRWYDQVSRRGIGYYWGQGTLVTVSS,low polyreactivity
20,QVQLVESGGGLVQAGGSLRLSCAASGRTCGSYAMGWYRQAPGKERELVAAISLSAGSTYYADSVKGRFTISRDNAKNTVYLQMNSLKPEDTAVYYCAAGTQWYSQVYIYYYWGQGTQVTVSS,low polyreactivity
21,QVQLVESGGGLVQAGGSLRLSCAASGRTCYSNAMGWYRQAPGKERELVAAITRGASTKYADSVKGRFTISRDNAKNTVYLQMNSLKPEDTAVYYCATARYPRYIYDYWGQGTQVTVSS,low polyreactivity
